The target of assay [1] is Daratumumab (Darzalex; lot GHS0901, Janssen, USA). The assay can be described thus: IAT inhibition; 25 µl Darzalex dilution with 2 µl of 8.5 mg/ml protein.
For assay [2] the target is unchanged. The assay can be described thus: anti-CD38 (DARATUMUMAB) inhibition IAT, ability to titrate the antibody, CD38ecd-Fc-10H as reference.

Chain of CD38ecd-flex-Fc-10H (P28907 45-300): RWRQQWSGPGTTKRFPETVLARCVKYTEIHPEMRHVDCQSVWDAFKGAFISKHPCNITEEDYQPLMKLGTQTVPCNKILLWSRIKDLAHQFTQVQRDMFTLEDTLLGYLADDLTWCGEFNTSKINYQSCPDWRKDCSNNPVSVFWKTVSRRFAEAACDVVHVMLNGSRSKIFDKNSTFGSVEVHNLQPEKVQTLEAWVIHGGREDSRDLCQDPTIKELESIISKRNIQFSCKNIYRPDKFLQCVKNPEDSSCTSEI
Chain of CD38ecd-Fc (P28907 45-300 limits assumed): as the sequence (P28907 45-300) above

For the substance “CD38ecd-flex-Fc-10H (from UniProt P28907 45-300) (Fc fusion)”, the anti-CD38 concentration completely inhibited in assay [1] is 0.125 mg/mL. The substance also had a Functionality in assay [2] of 100%.

“CD38ecd-Fc (from UniProt P28907 45-300) (Fc fusion)” yielded a Functionality in assay [2] of 50%.

Source of the values: US11708418.
